Experimental data from US20190345234A1 (CENTRE HOSPITALIER UNIVERSITAIRE VAUDOIS, published 2019).

Target: Fc-gamma receptor I (CD64) (UniProt P12314 16-374)
Test: cell-based or functional assay

Chain of Fc-gamma receptor I (CD64) (P12314 16-374 limits assumed, form in doubt): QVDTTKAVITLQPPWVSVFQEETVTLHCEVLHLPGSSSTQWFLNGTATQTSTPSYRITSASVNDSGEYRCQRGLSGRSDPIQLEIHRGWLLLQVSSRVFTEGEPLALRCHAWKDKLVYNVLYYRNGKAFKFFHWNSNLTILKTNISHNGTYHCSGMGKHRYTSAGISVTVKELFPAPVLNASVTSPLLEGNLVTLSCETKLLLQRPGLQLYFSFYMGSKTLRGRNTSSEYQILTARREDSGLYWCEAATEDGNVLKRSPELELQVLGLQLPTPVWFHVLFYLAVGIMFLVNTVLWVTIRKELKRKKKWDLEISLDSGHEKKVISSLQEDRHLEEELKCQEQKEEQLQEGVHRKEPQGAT

B1: IgG1 LN01 antibody (antibody, V domains shown)
VH: EVQLVESGPGLVQPWGTLSLTCRVSGDSVSNDNYYWAWIRQTPGRELQVIGTIYYSGTTYYNPSLRNRVTISLDKSVNVVSLRLGSVSAADTAQYYCVRMPSHGFWSTSFSYWYFDLWGRGHFVAVSW
VL: DIQMTQSPSSLSASVGDKVTITCRASQSVTKYLNWYQFKTGQAPRILIYGTYTLLSGVSPRFSGAGSGSLYTLTITNIQPEDFATYYCQQAHSTPWTFGQGTHVAAN
  neutralizing activity on TZM-bl cells expressing Fc-gamma receptor I against parental TZM-bl cells: 100 fold
